Measured values reported in paper PMC12784347, “Structural insights into substrate binding, residue contributions, and catalytic mechanism of phosphopantetheine adenylyltransferase from Helicobacter pylori” (Bioscience Reports, 2025).
Positions count from the first letter of the chain named. In names and notes the source's numbering stands.

Experiments:
[1] = molecular target: the molecule itself; experiment: crystal structure; HpPPAT:ATP; reservoir 17% PEG1000, 0.1 M citrate phosphate pH 4.2, 1.5 mM ATP, 0.2 M Li2SO4; space group P1, 12 copies in the asymmetric unit; 2.12 Å
[2] = molecular target: the molecule itself; experiment: crystal structure; apo HpPPAT; hanging-drop vapor diffusion, 293K, protein 15 mg/ml in 20 mM Tris-HCl pH 7.9, 100 mM NaCl; reservoir 2.5 M NaCl, 0.1 M sodium acetate pH 4.5, 0.2 M Li2SO4; space group H3, two copies in the asymmetric unit; 1.98 Å
[3] = molecular target: the molecule itself; experiment: crystal structure; HpPPAT P8A:dPCoA; reservoir 18% PEG550 MME, 0.2 M KF pH 7.4; space group P2(1)2(1)2, hexamer; 2.00 Å

B1: Helicobacter pylori phosphopantetheine adenylyltransferase, wild type (enzyme)
chain: MQKIGIYPGTFDPVTNGHIDIIHRSSELFEKLIVAVAHSSAKNPMFSLDERLKMIQLATKSFKNVECVAFEGLLANLAKEYHCKVLVRGLRVVSDFEYELQMGYANKSLNHELETLYFMPTLQNAFISSSIVRSIIAHKGDASHLVPKEIYPLISKA
notes: Phosphopantetheine adenylyltransferase (PPAT; EC 2.7.3.3) of Helicobacter pylori; each monomer in the crystal structures comprises 157 residues; also called HpPPAT; WT HpPPAT
**Q.** With B1 as the protein, how does the “stoichiometry N” value [1] read?
**A.** Its value is 12.

**Q.** What about the “stoichiometry N” value [2] of the same protein?
**A.** Its value is 2.

B2: Helicobacter pylori phosphopantetheine adenylyltransferase P8A mutant (enzyme)
chain: B1 chain with P8A
notes: Phosphopantetheine adenylyltransferase (PPAT; EC 2.7.3.3) of Helicobacter pylori with Pro8 replaced by alanine; also called HpPPAT P8A; HpPPAT mutant P8A
**Q.** Which “stoichiometry N” value [3] does the source give for B2 here?
**A.** The value was 6.
